Test results as given in US20230183713A1, “SITE-SPECIFIC RECOMBINASES FOR EFFICIENT AND SPECIFIC GENOME EDITING” (TECHNISCHE UNIVERSITÄt DRESDEN, published 2023).
Changes are numbered by the printed parent chain. Names and notes keep the numbering of the source.

Columns and labels:
[1] = target: T1, Cre recombinase monomer with Q311R mutation
T1 chain: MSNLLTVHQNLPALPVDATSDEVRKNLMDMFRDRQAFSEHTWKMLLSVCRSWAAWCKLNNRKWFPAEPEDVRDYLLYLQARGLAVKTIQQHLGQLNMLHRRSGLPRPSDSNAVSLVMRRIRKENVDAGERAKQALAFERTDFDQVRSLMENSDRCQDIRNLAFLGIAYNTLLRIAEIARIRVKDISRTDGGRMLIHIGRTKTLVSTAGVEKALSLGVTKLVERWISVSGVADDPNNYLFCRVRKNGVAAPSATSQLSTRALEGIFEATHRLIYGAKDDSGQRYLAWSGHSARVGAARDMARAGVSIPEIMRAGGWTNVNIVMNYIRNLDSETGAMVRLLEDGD

[2] = target: T2, Cre recombinase monomer with Y324A mutation
T2 chain: T1 chain with R311Q, Y324A

[3] = target: T3, Cre recombinase monomer with W315L mutation
T3 chain: T1 chain with R311Q, W315L

[4] = target: T4, Cre recombinase monomer with Y324K mutation
T4 chain: T1 chain with R311Q, Y324K

[5] = target: T5, Cre recombinase monomer with W315C mutation
T5 chain: T1 chain with R311Q, W315C

[6] = target: T6, Cre recombinase monomer with Y324I mutation
T6 chain: T1 chain with R311Q, Y324I

[7] = target: T7, Cre recombinase monomer with E176H mutation
T7 chain: T1 chain with E176H, R311Q

[8] = target: T8, Cre recombinase monomer with E176Y mutation
T8 chain: T1 chain with E176Y, R311Q

[9] = target: T9, Cre recombinase monomer with E176I mutation
T9 chain: T1 chain with E176I, R311Q

[10] = target: T10, Cre recombinase monomer with E176V mutation
T10 chain: T1 chain with E176V, R311Q

[11] = target: T11, Cre recombinase monomer with E176M mutation
T11 chain: T1 chain with E176M, R311Q

B1: Cre recombinase monomer with K201N mutation (protein)
chain: T1 chain with K201N, R311Q
Median dimer activity (recombination on loxP) [1]: 95% | Median dimer activity (recombination on loxP) [2]: 26%

B2: Cre recombinase monomer with H289E mutation (protein)
chain: T1 chain with H289E, R311Q
Median dimer activity (recombination on loxP) [3]: 33% | Median dimer activity (recombination on loxP) [1]: 94%

B3: Cre recombinase monomer with W315K mutation (protein)
chain: T1 chain with R311Q, W315K
Median dimer activity (recombination on loxP) [4]: 99%

B4: Cre recombinase monomer with H289W mutation (protein)
chain: T1 chain with H289W, R311Q
Median dimer activity (recombination on loxP) [5]: 87% | Median dimer activity (recombination on loxP) [1]: 95%

B5: Cre recombinase monomer with R292E mutation (protein)
chain: T1 chain with R292E, R311Q
Median dimer activity (recombination on loxP) [1]: 50% | Median dimer activity (recombination on loxP) [6]: 70%

B6: Cre recombinase monomer with R173W mutation (protein)
chain: T1 chain with R173W, R311Q
Median dimer activity (recombination on loxP) [7]: 57% | Median dimer activity (recombination on loxP) [1]: 95% | Median dimer activity (recombination on loxP) [8]: 30%

B7: Cre recombinase monomer with R173I mutation (protein)
chain: T1 chain with R173I, R311Q
Median dimer activity (recombination on loxP) [9]: 40% | Median dimer activity (recombination on loxP) [10]: 44% | Median dimer activity (recombination on loxP) [7]: 42% | Median dimer activity (recombination on loxP) [1]: 93%

B8: Cre recombinase monomer with R292T mutation (protein)
chain: T1 chain with R292T, R311Q
Median dimer activity (recombination on loxP) [1]: 94% | Median dimer activity (recombination on loxP) [4]: 55%

B9: Cre recombinase monomer with R173M mutation (protein)
chain: T1 chain with R173M, R311Q
Median dimer activity (recombination on loxP) [10]: 75% | Median dimer activity (recombination on loxP) [7]: 75% | Median dimer activity (recombination on loxP) [1]: 96% | Median dimer activity (recombination on loxP) [8]: 27% | Median dimer activity (recombination on loxP) [11]: 39%
